Results taken from patent publication US20220073617A1 (Five Prime, published 2022).
Where a chain is given by its changes, count along the chain named. Names and notes keep the numbering of the source.

B1: P1-065316 (41F11_VH_A60H VK A64G) (antibody, V domains shown)
VH: QVQLVESGGGLVKPGGSLRLSCAASGFTFSDYYMSWIRQAPGKGLEWVSYISNSGSPIYYHDSVKGRFTISRDNAKNSLYLQMNSLRAEDTAVYYCARDLPGWYFDLWGRGTLVTVSS
VL: EIVLTQSPATLSLSPGERATLSCRASQSVSSYLAWYQQKPGQAPRLLIYDASNRATGIPARFSGSGSGTDFTLTISSLEPEDFAVYYCQQRNNWPRTFGQGTKVEIK
notes: Kabat positions; also called P1-065316-1
B2: P1-065318 (41F11_VH_L96E VK A64G) (antibody, V domains shown)
VH: B1 VH with H61A, L100E
VL: B1 VL
notes: Kabat positions; also called P1-065318-1
B3: P1-065319 (41F11_VH_F100aG VK_A64G) (antibody, V domains shown)
VH: B1 VH with H61A, F105G
VL: B1 VL
notes: Kabat positions; also called P1-065319-1
B4: P1-065325 (41F11_VH_D31E/Y50W/S55E/A60H/Y100E VK_A64G) (antibody, V domains shown)
VH: B1 VH with D31E, Y50W, S56E, Y104E
VL: B1 VL
notes: Kabat positions; also called P1-065325-1
B5: P1-065329 (41F11_VH_D31E/S35Y/Y50W/S55E/A60H/Y100E/F100aG VK_A64G) (antibody, V domains shown)
VH: B1 VH with D31E, S35Y, Y50W, S56E, Y104E, F105G
VL: B1 VL
notes: Kabat positions; also called P1-065329-1
B6: P1-065332 (41F11_VH_T28P/Y50W/S55E/A60H/Y100E VK_A64G) (antibody, V domains shown)
VH: B1 VH with T28P, Y50W, S56E, Y104E
VL: B1 VL
notes: Kabat positions; also called P1-065332-1
B7: P1-065320 (41F11_VH_L96EF100aG VK_A64G) (antibody, V domains shown)
VH: B1 VH with H61A, L100E, F105G
VL: B1 VL

What follows are binders tested against T1, monovalent hVISTA-ECD (human VISTA extracellular domain with His tail) (human, UniProt Q9H7M9 33-193) (assay: SPR, pH 6.0).
T1 construct: analyte flowed over captured antibody; also called huVISTA-His
T1 sequence (Q9H7M9 other isoform, or with tags, fused parts or gaps limits assumed): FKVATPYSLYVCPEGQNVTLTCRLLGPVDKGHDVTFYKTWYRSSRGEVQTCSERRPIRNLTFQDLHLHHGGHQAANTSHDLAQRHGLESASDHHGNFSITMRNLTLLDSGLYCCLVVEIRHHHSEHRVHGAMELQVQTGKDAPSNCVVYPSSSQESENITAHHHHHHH
Protocol: (§1) Binding of several preparations of each of the '029 progeny clones and of the parent '029 antibodies, formatted as IgG1.3 antibodies, to human VISTA at pH 6.0 and 7.4 was measured by Surface plasmon resonance (SPR). SPR analysis was performed to measure koff and KD binding affinity measurements for VISTA Abs at acidic and neutral pHs using a Biacore® T100 instrument (GE Healthcare). Protein A (ThermoFisher Scientific catalog #21181) was diluted to 20 ug/ml in 10 mM sodium acetate pH 4.5 and immobilized onto flow cells of a CM5 biosensor following the manufacturer's amine coupling protocol (GE Healthcare), targeting 2,000 RU immobilization density of Protein A per flow cell. SPR experiments were conducted at 37° C. using PBST (137 mM sodium chloride, 2.7 mM potassium chloride, 10 mM phosphate buffer, 0.05% Tween® 20) running buffer at pH 7.4 and 6.0. Antibodies were diluted to 25 nM in PBST pH 7.4, and were captured across active biosensor flow cells at 5 ul/min for 60 seconds. […] Two 15 second injections of 10 mM glycine pH 1.5 were used to regenerate the Protein A capture surface between assay cycles. Rate constants ka (kₒₙ) and kd (koff) were derived from reference flow cell and 0 nM blank-subtracted sensorgrams, and were fit to a 1:1 binding model in Biacore® T200 Evaluation Software v.2.0. The affinity constant, KD was calculated as the ratio of rate constants koff/kₒₙ for each VISTA antibody. […]

How did the Kd turn out when B1 was run?
Its Kd is 14.5 nM.

What about the koff of the same binder?
The koff was 0.0561 s⁻¹.

And the kon?
Its kon is 3.86e+06 M⁻¹ s⁻¹.

With B2 as the binder, how does the Kd read?
Its Kd is 7.84 nM.

And the koff?
Its koff is 0.0154 s⁻¹.

And the kon?
The kon was 1.96e+06 M⁻¹ s⁻¹.

Which results are given for B3?
Kd: 29.1 nM; koff: 0.0385 s⁻¹; kon: 1.32e+06 M⁻¹ s⁻¹

With B4 as the binder, how does the Kd read?
The Kd was 0.179 nM.

What about the koff of the same binder?
The koff was 0.00143 s⁻¹.

And the kon?
Its kon is 7.99e+06 M⁻¹ s⁻¹.

B5 was tested. Which Kd did it give?
The Kd was 11.9 nM.

What about the koff of the same binder?
Its koff is 0.00791 s⁻¹.

And the kon?
The kon was 663000 M⁻¹ s⁻¹.

Which results are given for B6?
Kd: 0.409 nM; koff: 0.00221 s⁻¹; kon: 5.41e+06 M⁻¹ s⁻¹

What does the source list for B7?
Kd: 55.8 nM; koff: 0.0387 s⁻¹; kon: 694000 M⁻¹ s⁻¹

The binders below were run against T1, monovalent hVISTA-ECD (human VISTA …) (assay: SPR).
Protocol: as §1

With B1 as the binder, how does the “KD ratio (pH 7.4/pH 6.0)” value read?
The value was 0.28.

For B2, which “KD ratio (pH 7.4/pH 6.0)” value is on record?
Its value is 4.91.

For B3, which “KD ratio (pH 7.4/pH 6.0)” value is on record?
Its value is 0.85.

How did the “KD ratio (pH 7.4/pH 6.0)” value turn out when B4 was run?
The value was 1.42.

How did the “KD ratio (pH 7.4/pH 6.0)” value turn out when B5 was run?
The value was 40.2.

B6 was tested. Which “KD ratio (pH 7.4/pH 6.0)” value did it give?
Its value is 1.11.

How did the “KD ratio (pH 7.4/pH 6.0)” value turn out when B7 was run?
Its value is 45.5.

Each binder was assayed against T1, monovalent hVISTA-ECD (human VISTA …) (assay: SPR, pH 7.4).
Protocol: as §1

With B1 as the binder, how does the Kd read?
Its Kd is 4.12 nM.

And the koff?
The koff was 0.000995 s⁻¹.

And the kon?
The kon was 242000 M⁻¹ s⁻¹.

With B2 as the binder, how does the Kd read?
The Kd was 38.5 nM.

What about the koff of the same binder?
The koff was 0.0042 s⁻¹.

What about the kon of the same binder?
Its kon is 109000 M⁻¹ s⁻¹.

With B3 as the binder, how does the Kd read?
Its Kd is 24.6 nM.

What about the koff of the same binder?
Its koff is 0.00514 s⁻¹.

What about the kon of the same binder?
Its kon is 209000 M⁻¹ s⁻¹.

With B4 as the binder, how does the Kd read?
The Kd was 0.255 nM.

And the koff?
Its koff is 0.000158 s⁻¹.

And the kon?
The kon was 618000 M⁻¹ s⁻¹.

Which results are given for B5?
Kd: 478 nM; koff: 0.000858 s⁻¹; kon: 1800 M⁻¹ s⁻¹

B6 was tested. Which Kd did it give?
Its Kd is 0.456 nM.

And the koff?
Its koff is 0.000236 s⁻¹.

And the kon?
The kon was 517000 M⁻¹ s⁻¹.

With B7 as the binder, how does the Kd read?
The Kd was 2540 nM.

What about the koff of the same binder?
Its koff is 0.0352 s⁻¹.

And the kon?
The kon was 13800 M⁻¹ s⁻¹.
